For 3 molecules, Km and kcat results are on record in paper PMC6314816 (Journal of the American Chemical Society, 2018).

Holding throughout (assay): spectrophotometric NADPH oxidation, initial rates
Common to all, as to format: biochemical, Thermocrispum municipale
Holding throughout (details): NADPH co-substrate

Data set [1] concerns CC(=O)CCc1ccccc1.
Data set [2] deals with CC(=O)Cc1ccccc1.
Substrate in data set [3]: CC(=O)CCc1ccccc1
This is another data set of the same source.

Substrate in data set [4]: CC(=O)Cc1ccccc1
This is another data set of the same source.

Regarding “TmCHMO (Thermocrispum municipale; F434G/L145G/L437T/T435F)”, in data set [1], the Km turned out to be 24 ± 4.1 µM and the kcat worked out at 0.16 ± 0.0028 s⁻¹.

Consider “TmCHMO (Thermocrispum municipale; L437A/W492Y)”, for which, in data set [2], the Km was 1500 ± 460 µM and the turnover number (kcat) came to 0.16 ± 0.014 s⁻¹.

B1: TmCHMO (Thermocrispum municipale) (protein)
chain: MSTTQTPDLDAIVIGAGFGGIYMLHKLRNDLGLSVRVFEKGGGVGGTWYWNKYPGAKSDTEGFVYRYSFDKELLREYDWTTRYLDQPDVLAYLEHVVERYDLARDIQLNTEVTDAIFDEETELWRVTTAGGETLTARFLVTALGLLSRSNIPDIPGRDSFAGRLVHTNAWPEDLDITGKRVGVIGTGSTGTQFIVAAAKMAEQLTVFQRTPQYCVPSGNGPMDPDEVARIKQNFDSIWDQVRSSTVAFGFEESTVEAMSVSESERQRVFQQAWDKGNGFRFMFGTFCDIATNPEANAAAAAFIRSKIAEIVKDPETARKLTPTDLYAKRPLCNEGYYETYNRDNVSLVSLKETPIEEIVPQGVRTSDGVVHELDVLVFATGFDAVDGNYRAMNLRGRDGRHINEHWTEGPTSYLGVTKAGFPNMFMILGPNGPFTNLPPSIEAQVEWISDLIDKATREGLTTVEPTADAEREWTETCAEIANMTLFPKADSWIFGANIPGKRHAVMFYLGGLGNYRRQLADVADGGYRGFQLRGERAQAVA
Turning to B1, in data set [3], the Km was 12000 ± 7000 µM and the kcat came out at 0.31 ± 0.11 s⁻¹. For the same molecule, in data set [4], the Michaelis constant (Km) worked out at 860 ± 60 µM and the kcat was determined as 0.73 ± 0.014 s⁻¹.
